Results on 167 variants are retold here after the RNAGym collection of RNA variant scans (doi:10.7554/elife.80360).

Sequences and labels used below:
B1: Hairpin Ribozyme (parent)
chain: GUCCUCUUUCACGUGCGCGUGAAAGAGAGAAGUGAACCAGAGAAACACACGUUGUGGUAUAUUACCUGGUA

In this data set the parent is B1. The data set can be described thus: self-cleavage, relative activity (ratio to wild type); higher = more cleavage; co-transcriptional.
As to A22C G42U, the self-cleavage was 0.239.

A22C G42A: the self-cleavage turned out to be 0.146.

G21A C50U: the self-cleavage amounted to 0.371.

On to A22C U58C, for which the self-cleavage came out at 0.94.

As for G21C A28U, the self-cleavage amounted to 0.31.

In the case of G21C G54A, the self-cleavage worked out at 0.392.

Take G21C G54U: the self-cleavage amounted to 0.511.

As for A22U A28U, the self-cleavage worked out at 0.67.

On to A22U A28C, for which the self-cleavage was found to be 0.561.

For the variant A22G A30C, the self-cleavage came to 0.182.

Take A22G A30G: the self-cleavage amounted to 0.0887.

Turning to A22G A30U, the self-cleavage was determined as 0.0767.

G21A U63A: the self-cleavage stood at 0.14.

Turning to A22C G56U, the self-cleavage was found to be 0.148.

Consider A22C G56C, for which the self-cleavage amounted to 0.243.

As to G21A U58G, the self-cleavage came out at 0.554.

With G21C G56U, the self-cleavage came out at 0.268.

In the case of G21C G56C, the self-cleavage was determined as 0.209.

With G21A C38G, the self-cleavage turned out to be 0.239.

As for G21A C38A, the self-cleavage amounted to 0.208.

As for G21C U63C, the self-cleavage came to 0.196.

G21A A47U: the self-cleavage amounted to 0.162.

Take A22U C50G: the self-cleavage was found to be 0.223.

Take G21A A35G: the self-cleavage was 0.729.

G21A G25U: the self-cleavage amounted to 0.426.

Consider G21A C46A, for which the self-cleavage worked out at 0.149.

Consider G21U G51C, for which the self-cleavage turned out to be 0.859.

With G21U A23U, the self-cleavage was determined as 0.754.

Turning to G21U A23G, the self-cleavage came out at 0.772.

Turning to A22U G54U, the self-cleavage was determined as 0.518.

Regarding A22U G54A, the self-cleavage was 0.335.

For A22U G54C, the self-cleavage is 0.333.

A22U C46U: the self-cleavage stood at 0.117.

Consider A22U A30C, for which the self-cleavage came out at 0.223.

In the case of A22G G29U, the self-cleavage was 0.0873.

In the case of A22G G29A, the self-cleavage stood at 0.121.

Consider A22G A23U, for which the self-cleavage worked out at 0.59.

For A22G A23C, the self-cleavage stood at 0.915.

As to G21U A22U, the self-cleavage turned out to be 0.809.

With A22U C66U, the self-cleavage came out at 0.482.

In the case of G21A G54U, the self-cleavage was found to be 0.372.

As to A22C U52C, the self-cleavage was found to be 1.09.

Turning to A22C U52G, the self-cleavage is 0.726.

Regarding A22G A36G, the self-cleavage is 0.757.

Consider G21A A61U, for which the self-cleavage was 0.18.

As for G21A A61G, the self-cleavage was found to be 0.116.

In the case of U20G G42C, the self-cleavage stood at 0.206.

With U20G G42U, the self-cleavage came to 0.245.

As for G21A U62G, the self-cleavage was determined as 0.163.

In the case of A23C A31G, the self-cleavage is 0.696.

For the variant A22C A43C, the self-cleavage was 0.061.

With A22G G27A, the self-cleavage stood at 0.522.

Take A22G C50G: the self-cleavage was 0.42.

Turning to A22G C50U, the self-cleavage stood at 0.362.

As for U20G U58C, the self-cleavage amounted to 0.826.

Regarding A22U G51C, the self-cleavage turned out to be 0.607.

As to A22U G51U, the self-cleavage turned out to be 0.761.

For G21U G42U, the self-cleavage amounted to 0.285.

With G21U G42A, the self-cleavage was found to be 0.158.

On to G21A A64G, for which the self-cleavage stood at 0.418.

As for G21A A64U, the self-cleavage stood at 0.178.

As to A22G A64G, the self-cleavage is 0.565.

Take G21A C37G: the self-cleavage is 0.344.

Turning to G21A C37A, the self-cleavage was determined as 0.269.

As for G21A C37U, the self-cleavage turned out to be 0.538.

A22C A24G: the self-cleavage was determined as 0.717.

On to G21C A36U, for which the self-cleavage is 0.566.

Turning to G21C A36C, the self-cleavage was 0.534.

As to G21C A26C, the self-cleavage worked out at 0.164.

For A22U G42C, the self-cleavage turned out to be 0.325.

As for G21A G56U, the self-cleavage was 0.185.

Take G21A G56A: the self-cleavage stood at 0.19.

Take A22C A23U: the self-cleavage was determined as 0.932.

On to A22C A23G, for which the self-cleavage turned out to be 0.779.

Take A22C A23C: the self-cleavage turned out to be 0.947.

As for G21C G40U, the self-cleavage came out at 0.17.

Consider G21C G40C, for which the self-cleavage stood at 0.0941.

For G21U A44G, the self-cleavage turned out to be 0.0823.

In the case of G21U A44C, the self-cleavage was 0.117.

As for G21U A59C, the self-cleavage was determined as 0.148.

Turning to G21U A59G, the self-cleavage stood at 0.0937.

As to G21U A59U, the self-cleavage was determined as 0.147.

In the case of A23C A39U, the self-cleavage amounted to 0.269.

On to U20G U62C, for which the self-cleavage was 0.188.

G21A A39U: the self-cleavage stood at 0.346.

Take G21A A39C: the self-cleavage was found to be 0.467.

G21C A35U: the self-cleavage worked out at 0.751.

As to G21A U52G, the self-cleavage is 0.784.

As for G21A A71G, the self-cleavage stood at 0.854.

For the variant G21A A71C, the self-cleavage came out at 1.23.

Take A22G A31C: the self-cleavage amounted to 0.159.

For the variant A22G A31G, the self-cleavage came out at 0.744.

Turning to G21C G42U, the self-cleavage turned out to be 0.379.

For the variant A22C A41G, the self-cleavage came out at 0.704.

On to A23C A36G, for which the self-cleavage came to 1.08.

Consider G21C A43C, for which the self-cleavage was 0.146.

With G21C A43G, the self-cleavage came to 0.104.

Regarding A22C C38U, the self-cleavage came out at 0.552.

A22C C38G: the self-cleavage stood at 0.215.

Regarding G21C C66A, the self-cleavage was found to be 0.27.

As for G21C C66U, the self-cleavage came to 0.576.

Turning to U20G G57A, the self-cleavage was 0.195.

On to A23C A26C, for which the self-cleavage amounted to 0.507.

For the variant G21U A28U, the self-cleavage is 0.688.

For A22G A49U, the self-cleavage came out at 0.126.

Regarding G21A U55A, the self-cleavage amounted to 0.177.

Take G21C U67C: the self-cleavage was found to be 0.18.

G21C U67G: the self-cleavage amounted to 0.246.

For G21C U67A, the self-cleavage is 0.212.

G21C A64U: the self-cleavage came to 0.0998.

Take G21C A64C: the self-cleavage was 0.154.

Take A22G A47G: the self-cleavage was found to be 0.135.

Take G21C G69C: the self-cleavage was found to be 0.265.

Take A22U A59C: the self-cleavage was 0.17.

With A22C C66A, the self-cleavage was 0.216.

As for A22C C66U, the self-cleavage worked out at 0.649.

As to A22G A44C, the self-cleavage came out at 0.136.

A22U A64U: the self-cleavage is 0.14.

For the variant A22U A64G, the self-cleavage worked out at 0.474.

With G21C A23C, the self-cleavage turned out to be 0.422.

Turning to G21U A47G, the self-cleavage is 0.208.

As to A22G C46G, the self-cleavage was determined as 0.208.

Turning to A22G C46U, the self-cleavage stood at 0.0765.

With A22G U33G, the self-cleavage was determined as 0.111.

Take G21U U67A: the self-cleavage came to 0.088.

G21A A24U: the self-cleavage turned out to be 0.513.

On to G21A C66U, for which the self-cleavage stood at 0.447.

Consider A22U U52G, for which the self-cleavage stood at 0.883.

Take A22U U52C: the self-cleavage was 0.631.

In the case of G21U U63G, the self-cleavage is 0.248.

Turning to G21U U63C, the self-cleavage was 0.122.

As to G21C C37U, the self-cleavage stood at 0.583.

Turning to G21C C37A, the self-cleavage was 0.192.

For G21C C46A, the self-cleavage came out at 0.0884.

Turning to G21C C46U, the self-cleavage was 0.116.

Take G21C G57A: the self-cleavage turned out to be 0.16.

For the variant A22C G68U, the self-cleavage was determined as 0.262.

With A22C G68A, the self-cleavage amounted to 0.165.

With G21C A59C, the self-cleavage was 0.238.

For the variant A22G A59U, the self-cleavage is 0.0393.

For A22C U33C, the self-cleavage turned out to be 0.155.

Regarding A22C U33A, the self-cleavage was determined as 0.0448.

Consider G21U A71G, for which the self-cleavage was 0.805.

U20G U33A: the self-cleavage came out at 0.158.

For U20G U33G, the self-cleavage came out at 0.11.

For A22G U52A, the self-cleavage worked out at 0.853.

Turning to G21U A61C, the self-cleavage is 0.237.

Consider A22G U58G, for which the self-cleavage was found to be 0.528.

For A22G U58C, the self-cleavage was found to be 0.954.

Take A22G U53A: the self-cleavage came to 0.926.

Consider A22C A30C, for which the self-cleavage is 0.16.

Regarding A22C G51U, the self-cleavage was 0.919.

As to G21A A49C, the self-cleavage stood at 0.233.

Consider G21A A49G, for which the self-cleavage stood at 0.469.

In the case of A22C A64G, the self-cleavage stood at 0.467.

As to A22G G57U, the self-cleavage turned out to be 0.305.

As to A22G G57A, the self-cleavage was determined as 0.17.

Take G21C G27C: the self-cleavage came to 0.134.

Turning to A22C U63G, the self-cleavage was found to be 0.109.

Regarding A22U G32A, the self-cleavage came to 0.122.

Regarding G21C A44U, the self-cleavage is 0.0331.

A22G A35G: the self-cleavage was determined as 0.905.

Consider A22G A35U, for which the self-cleavage was found to be 0.715.

Take G21C A39G: the self-cleavage was found to be 0.225.

On to G21C A39U, for which the self-cleavage was 0.46.

For the variant G21C U60C, the self-cleavage was 0.851.

G21C U60A: the self-cleavage was determined as 0.744.
